Laboratory results reported in patent US20240272170A1 (QUANTUM SI, published 2024).

Columns and labels:
[1] = target: T1, QP1165 after cleavage to N-terminal leucine (LKQRVWK); assay: on-chip dynamic sequencing of QP1165, PS1875 run, trace Aperture=430641
T1 peptide: LKQRVWK

[2] = target: T1, QP1165 after cleavage to N-terminal …; assay: on-chip dynamic sequencing of QP1165, 500 nM PS2121 plus five recognizers, 15527 alignments
[3] = target: T2, QP1165 after cleavage to N-terminal isoleucine (IAFLKQRVWK); assay: as above
T2 peptide: IAFLKQRVWK

[4] = target: T1, QP1165 after cleavage to N-terminal …; assay: on-chip dynamic sequencing of QP1165, PS1875 run, trace Aperture=340501
[5] = target: T2, QP1165 after cleavage to N-terminal …; assay: as above
[6] = target: T1, QP1165 after cleavage to N-terminal …; assay: on-chip dynamic sequencing of QP1165, PS1875 run, trace Aperture=1377116
Description: The semiconductor chip was placed in the sequencing device and a chip check was performed to test electronic circuit function and to optimize laser coupling alignment. The chip was then removed from the device socket and the chip was washed twice with 50 μL of 70% isopropanol, followed by four washes with 30 μL of wash buffer (50 mM MOPS pH 8.0, 60 mM potassium acetate, 50 mM glucose, 20 mM magnesium acetate, and surfactant mix) through a flow cell attached to the chip. A second chip check was then performed. The laser was then blocked via an integrated software-controlled shutter, peptide complex was added to a final concentration of 1-10 nM and mixed thoroughly, and the chip was incubated for 15 min. The chip was then washed six times with wash buffer, followed by addition of an imaging solution (wash buffer with 5 mM Trolox and an oxygen scavenging system). The laser was unblocked and the occupancy percentage (target 10-30%, Poisson distributed) was recorded by acquiring a photobleaching signal from a fluorophore attached to the peptide complex during 5 min of laser illumination. […] Data was recorded for 15 min. The laser was then blocked briefly and aminopeptidases were added to the sequencing reaction via the flow cell and mixed thoroughly (final concentration 2-8 μM PhTET2 and/or 20-80 μM PhTET3, as indicated according to the experiment). The laser was then unblocked, and data was recorded for 10 hours. For all runs, 30 μL of mineral oil was added to fluid reservoirs at each port of the flow cell to prevent evaporation during the run.

[7] = target: T1, QP1165 after cleavage to N-terminal …; assay: on-chip dynamic sequencing of QP1165, 500 nM PS2123 plus five recognizers, 62511 alignments
[8] = target: T2, QP1165 after cleavage to N-terminal …; assay: as above

B1: PS1223 (designed binder)
single polypeptide, two PS961 units in tandem: MPTAASATESAIEDTPAPARPEVDGRTKPKRQPRYHVVLWDDDDHTYQYVVVMLRSLFGHPPSRGYRMAKEMDTQGRVIVLTTTREHAELKRDQIHAFGRDRLLARSKGSMKASIEAEEGSAGSAAGSGEFGSAGSAAGSGEFGSAGSAAGSGEFMPTAASATESAIEDTPAPARPEVDGRTKPKRQPRYHVVLWDDDDHTYQYVVVMLRSLFGHPPSRGYRMAKEMDTQGRVIVLTTTREHAELKRDQIHAFGRDRLLARSKGSMKASIEAEE
notes: dye-labelled recognizer for N-terminal L, I, V in the six-recognizer runs; also called PS1223 (LIV)
[1]
  PD of a recognition segment in an example trace: 0.64 s
[2]
  IPD (interpulse duration): 16.6 s
  PD (pulse duration): 0.63 s
[3]
  IPD (interpulse duration): 8.64 s
  PD (pulse duration): 0.7 s
[4]
  PD of a recognition segment in an example trace: 0.36 s
[5]
  PD of a recognition segment in an example trace: 0.49 s
[6]
  PD of a recognition segment in an example trace: 0.68 s
[7]
  IPD (interpulse duration): 17.3 s
  PD (pulse duration): 0.54 s
[8]
  IPD (interpulse duration): 9.24 s
  PD (pulse duration): 0.73 s
